Measured values taken from article doi:10.1101/2025.08.19.671159.

Target: 14-3-3ζ of the Tni-FNL-produced BRAF complexes (human) (UniProt P63104)
Experiment: cryo-EM structure; BRAF:14-3-3_(2):MEK complex co-expressed in Tni-FNL insect cells and purified as a complex; 3.8 Å

- stoichiometry N: 2
Substance: 14-3-3ζ of the Tni-FNL-produced BRAF complexes (from UniProt P63104 1-245) (natural protein)
